Reference: patent publication US20250179200A1 (UNIVERSITY OF CHICAGO, published 2025)
Where a chain is given by its changes, count along the chain named.

Experiments:
[1] = molecular target: T1, Growth Hormone Receptor (GHR) immobilized on a high binding plate (UniProt P10912 19-264, limits assumed); experiment: competition ELISA: Fab titrated on plate-bound GHR preincubated with 200 nM GH (the legend of 6A names B2036), anti-human Fab-HRP
T1 sequence (looked up): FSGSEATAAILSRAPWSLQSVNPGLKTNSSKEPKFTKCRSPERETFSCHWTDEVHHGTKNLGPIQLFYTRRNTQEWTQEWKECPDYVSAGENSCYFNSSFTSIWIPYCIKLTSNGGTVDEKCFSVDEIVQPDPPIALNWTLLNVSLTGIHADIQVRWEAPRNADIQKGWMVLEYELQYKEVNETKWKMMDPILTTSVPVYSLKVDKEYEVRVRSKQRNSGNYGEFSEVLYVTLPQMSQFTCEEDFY
Description: 200 nM of GHR was immobilized on a 96-well high binding plate (Geiner Bio) and blocked with 5% BSA overnight. […] The Fab binding to GHR was detected using HRP-conjugated anti-human (Fab)2 antibody (Jackson ImmunoResearch, 1:5000 dilution in PBST), and the signal was developed with TMB substrate.

[2] = molecular target: T2, Human GHR-Fc-10x His (extracellular region of human growth hormone receptor fused to human Fc) (human, UniProt P10912 50-256); experiment: SPR, GHR-Fc-10xHis captured on Ni-NTA chip, Fab as analyte, 1:1 fit
T2 construct: Captured by its 10x His-tag on a Ni-NTA sensor chip for SPR; not shown: human Fc domain of vector pAB1200 with its linker; 10x His-tag replacing the AviTag
T2 sequence (looked up): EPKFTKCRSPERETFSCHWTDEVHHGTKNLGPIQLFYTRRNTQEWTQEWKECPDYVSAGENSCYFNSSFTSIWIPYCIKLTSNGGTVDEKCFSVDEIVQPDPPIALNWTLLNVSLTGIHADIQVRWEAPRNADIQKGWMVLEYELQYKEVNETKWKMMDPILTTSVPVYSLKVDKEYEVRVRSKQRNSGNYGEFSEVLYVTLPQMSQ
Description: Surface plasmon resonance (SPR) measurements were conducted in a MASS-1 (Bruker) instrument. The target GHR-Fc (50 nM) with a 10× His-tag was captured in a Ni-NTA sensor chip. […] Flow rate was 30 ul/min and temperature 20° C. Sensograms were corrected through double referencing and fitting was done with a 1:1 binding model using the Sierra Analyzer (Bruker). For epitope binning experiments, the first FAB was injected at saturating concentrations (200 nM), followed by injection a second FAB in equal molar mixture with the first FAB, and the response unit (RU) was recorded.
Target GHR_Fc (from different species) were immobilized via a 10× His-tag to a Ni-NTA sensor chip. […] Sensograms were corrected through double referencing and 1:1 binding model fit was done using Sierra Analyzer (Bruker). To reveal different epitopes on GHR, the epitope binning experiment was performed.

B1: GHR3 Fab (Fab, V domains shown)
VH: EVQLVESGGGLVQPGGSLRLSCAASGFNVSYYSIHWVRQAPGKGLEWVAYISPSYGSTSYADSVKGRFTISADTSKNTAYLQMNSLRAEDTAVYYCARGYWGGGYWPYHAFDYWGQGTLVTVSS
VL: DIQMTQSPSSLSASVGDRVTITCRASQSVSSAVAWYQQKPGKAPKLLIYSASSLYSGVPSRFSGSRSGTDFTLTISSLQPEDFATYYCQQYYTSLLTFGQGTKVEIKR
EC50 [1]: 26 nM

B2: GHR_TS10 Fab (Fab, V domains shown)
VH: EVQLVESGGGLVQPGGSLRLSCAASGFNFSSSYIHWVRQAPGKGLEWVAYISPSSGYTSYADSVKGRFTISADTSKNTAYLQMNSLRAEDTAVYYCARQYYGGWYGFGMDYWGQGTLVTVSS
VL: B1 VL with Y91W, Y92H, T93S, S94Y, L96I
EC50 [1]: 3.5 nM

B3: GHR_TS23 Fab (Fab, V domains shown)
VH: EVQLVESGGGLVQPGGSLRLSCAASGFNFYYSSIHWVRQAPGKGLEWVASIYSYSGSTSYADSVKGRFTISADTSKNTAYLQMNSLRAEDTAVYYCARQYWYYGGYFYYGIDYWGQGTLVTVSS
VL: B1 VL with Y92W, T93S, S94T, L96I
EC50 [1]: 3.5 nM

B4: GHR12 Fab (Fab, V domains shown)
VH: EVQLVESGGGLVQPGGSLRLSCAASGFNVSYYSIHWVRQAPGKGLEWVASIYSSYGSTYYADSVKGRFTISADTSKNTAYLQMNSLRAEDTAVYYCARGYWQGGYYRWGNGGLDYWGQGTLVTVSS
VL: B1 VL with Y91S, T93G, S94W, L96I
notes: Fab
Kd [2]: < 1 nM | koff [2]: 0.000168 s⁻¹ | kon [2]: 536000 M⁻¹ s⁻¹

B5: GHR13 Fab (Fab, V domains shown)
VH: EVQLVESGGGLVQPGGSLRLSCAASGFNVYYSSIHWVRQAPGKGLEWVAYIYPSSGSTSYADSVKGRFTISADTSKNTAYLQMNSLRAEDTAVYYCARSWQWYYPGWEQYGWYGMDYWGQGTLVTVSS
VL: B1 VL with Y91S, Y92G, T93G, L96V
notes: Fab
Kd [2]: 2.84 nM | koff [2]: 0.00053 s⁻¹ | kon [2]: 187000 M⁻¹ s⁻¹

B6: GHR3 Fab (Fab, V domains shown)
VH: B1 VH
VL: B1 VL
notes: Fab
Kd [2]: < 1 nM | koff [2]: 1.32e-06 s⁻¹ | kon [2]: 405000 M⁻¹ s⁻¹

B7: GHR1 Fab (Fab, V domains shown)
VH: EVQLVESGGGLVQPGGSLRLSCAASGFNVSYSSIHWVRQAPGKGLEWVAYIYSSYGSTYYADSVKGRFTISADTSKNTAYLQMNSLRAEDTAVYYCAREYWPYYSQTGGSAMDYWGQGTLVTVSS
VL: B1 VL with Y91S, Y92M, T93H, S94P, L96I
notes: Synthetic human Fab from phage display, expressed in E. coli
Kd [2]: 6.29 nM | koff [2]: 0.000336 s⁻¹ | kon [2]: 53400 M⁻¹ s⁻¹

B8: GHR7 Fab (Fab, V domains shown)
VH: EVQLVESGGGLVQPGGSLRLSCAASGFNFSYSSIHWVRQAPGKGLEWVAYISSYYGYTSYADSVKGRFTISADTSKNTAYLQMNSLRAEDTAVYYCARLQHPSWYYYQGYHSGMDYWGQGTLVTVSS
VL: B1 VL with Y92W, T93S, L96I
notes: Fab
Kd [2]: 2.21 nM | koff [2]: 0.00129 s⁻¹ | kon [2]: 587000 M⁻¹ s⁻¹

B9: GHR4 Fab (Fab, V domains shown)
VH: EVQLVESGGGLVQPGGSLRLSCAASGFNVYYSYIHWVRQAPGKGLEWVAYISPYSGSTSYADSVKGRFTISADTSKNTAYLQMNSLRAEDTAVYYCARQEWYAFDYWGQGTLVTVSS
VL: B1 VL with Y92W, T93S, S94Y, L96I
notes: Fab; also called FAB4
Kd [2]: 1.9 nM | koff [2]: 0.000992 s⁻¹ | kon [2]: 522000 M⁻¹ s⁻¹

B10: GHR8 Fab (Fab, V domains shown)
VH: EVQLVESGGGLVQPGGSLRLSCAASGFNISYSSIHWVRQAPGKGLEWVASIYSSYGSTYYADSVKGRFTISADTSKNTAYLQMNSLRAEDTAVYYCARSYIYSQPGFYYDSYALDYWGQGTLVTVSS
VL: B1 VL with Y92G, T93S, S94W, L96I
notes: Fab
Kd [2]: 3.23 nM | koff [2]: 0.000505 s⁻¹ | kon [2]: 156000 M⁻¹ s⁻¹

B11: GHR2 Fab (Fab, V domains shown)
VH: EVQLVESGGGLVQPGGSLRLSCAASGFNLYYSSIHWVRQAPGKGLEWVAYISPSYGSTSYADSVKGRFTISADTSKNTAYLQMNSLRAEDTAVYYCARYYDYSWPWYWHGGGPAFDYWGQGTLVTVSS
VL: DIQMTQSPSSLSASVGDRVTITCRASQSVSSAVAWYQQKPGKAPKLLIYSASSLYSGVPSRFSGSRSGTDFTLTISSLQPEDFATYYCQQYEEYPLITFGQGTKVEIKR
notes: Fab
Kd [2]: 16.8 nM | koff [2]: 0.000873 s⁻¹ | kon [2]: 51200 M⁻¹ s⁻¹

B12: GHR14 Fab (Fab, V domains shown)
VH: EVQLVESGGGLVQPGGSLRLSCAASGFNISSSYIHWVRQAPGKGLEWVASISSYYGYTSYADSVKGRFTISADTSKNTAYLQMNSLRAEDTAVYYCARSYGSYYGYYHYWEWYGLDYWGQGTLVTVSS
VL: B11 VL with Y91W, E92Q, E93Y, Y94W, P95S, L96P, I97V
notes: Fab
Kd [2]: 7.15 nM | koff [2]: 0.00127 s⁻¹ | kon [2]: 177000 M⁻¹ s⁻¹

B13: GHR5 Fab (Fab, V domains shown)
VH: EVQLVESGGGLVQPGGSLRLSCAASGFNVSYYSIHWVRQAPGKGLEWVAYISPSSGSTSYADSVKGRFTISADTSKNTAYLQMNSLRAEDTAVYYCARMYWQGGYSSYWQSYAMDYWGQGTLVTVSS
VL: B11 VL with Y91K, E92S, E93Q, P95S, I97V
notes: Fab
Kd [2]: 15.5 nM | koff [2]: 0.00211 s⁻¹ | kon [2]: 136000 M⁻¹ s⁻¹

B14: GHR15 Fab (Fab, V domains shown)
VH: EVQLVESGGGLVQPGGSLRLSCAASGFNVSSSSIHWVRQAPGKGLEWVASIYSYYGYTSYADSVKGRFTISADTSKNTAYLQMNSLRAEDTAVYYCARSSGYHGWYWNGMDYWGQGTLVTVSS
VL: B11 VL with Y91W, E92Y, E93G, Y94M, P95S, I97V
notes: Fab
Kd [2]: < 1 nM | koff [2]: 0.000131 s⁻¹ | kon [2]: 170000 M⁻¹ s⁻¹

B15: GHR9 Fab (Fab, V domains shown)
VH: EVQLVESGGGLVQPGGSLRLSCAASGFNVSYSSIHWVRQAPGKGLEWVASISSSYGSTYYADSVKGRFTISADTSKNTAYLQMNSLRAEDTAVYYCARYYDYSWSTYKGIGTGAIDYWGQGTLVTVSS
VL: B11 VL with E92W, E93Y, Y94S, P95Y
notes: Fab
Kd [2]: < 1 nM | koff [2]: 0.00012 s⁻¹ | kon [2]: 238000 M⁻¹ s⁻¹

B16: GHR10 Fab (Fab, V domains shown)
VH: EVQLVESGGGLVQPGGSLRLSCAASGFNFSYYSIHWVRQAPGKGLEWVASISSYYGSTSYADSVKGRFTISADTSKNTAYLQMNSLRAEDTAVYYCARTEYSFGMYWAHTGMDYWGQGTLVTVSS
VL: B11 VL with Y91F, E92W, E93S, Y94S, P95E, L96P
notes: Fab
Kd [2]: 1.51 nM | koff [2]: 0.000642 s⁻¹ | kon [2]: 425000 M⁻¹ s⁻¹

B17: GHR6 Fab (Fab, V domains shown)
VH: EVQLVESGGGLVQPGGSLRLSCAASGFNVYYSSIHWVRQAPGKGLEWVASIYSSYGYTSYADSVKGRFTISADTSKNTAYLQMNSLRAEDTAVYYCARGQWSGLSGYWEYKALDYWGQGTLVTVSS
VL: B11 VL with Y91V, E92G, E93G, Y94S, P95S
notes: Fab
Kd [2]: 1.89 nM | koff [2]: 0.000296 s⁻¹ | kon [2]: 156000 M⁻¹ s⁻¹

B18: GHR11 Fab (Fab, V domains shown)
VH: EVQLVESGGGLVQPGGSLRLSCAASGFNLSYYYIHWVRQAPGKGLEWVASIYSSSGYTYYADSVKGRFTISADTSKNTAYLQMNSLRAEDTAVYYCARQYPYSWSSYGFSSGALDYWGQGTLVTVSS
VL: DIQMTQSPSSLSASVGDRVTITCRASQSVSSAVAWYQQKPGKAPKLLIYSASSLYSGVPSRFSGSRSGTDFTLTISSLQPEDFATYYCQQYFAYYSPITFGQGTKVEIKR
notes: Fab
Kd [2]: 1.3 nM | koff [2]: 0.000587 s⁻¹ | kon [2]: 451000 M⁻¹ s⁻¹
